# ± gives the standard deviation.
# Assay: protein stability index of a GFP-peptide fusion (GPS, HEK-293T) (PSI 1-6); higher = more stable
# [1] = treatment: DMSO, c terminus: a fixed tail appended
# [2] = treatment: MLN4924 1 uM, 8 h, c terminus: a fixed tail appended
# 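Also: 24-mer peptide tiles fused after GFP, lentivirally expressed, FACS-sorted into six equal bins by GFP/DsRed ratio, decoded by Illumina sequencing, PSI is the read-weighted mean bin number.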
sequence,measurement,setting,value
KETEERTDGERVAEVAPEERENVA [SDE2],protein stability index,[1],5.64 ± 0.17
same,protein stability index,[2],5.33 ± 0.42
PSPTSPPPPELMDVSLVGGPADCS [DYRK1B],protein stability index,[1],5.09 ± 0.1
same,protein stability index,[2],5.14 ± 0.22
EFDSEHNLTSNEGHSLKNLEHRLN [RASAL3],protein stability index,[1],4.82 ± 0.49
same,protein stability index,[2],4.67 ± 0.49
LEEELRQLKEEMARHLREYQELLN [PRPH],protein stability index,[1],3.27 ± 0.11
same,protein stability index,[2],3.62 ± 0.32
YQDMIYAVGGRDDTTELSSAERYN [KLHL20],protein stability index,[1],2.91 ± 0.66
same,protein stability index,[2],3.52 ± 0.51
FRTDPEAKVKLVFVEDQAVVETVF [ZSWIM9],protein stability index,[1],2.46 ± 0.38
same,protein stability index,[2],2.5 ± 0.32
RNHMENGGDHRYVNNYTNSFGGEW [TRIM29],protein stability index,[1],3.13 ± 0.16
same,protein stability index,[2],3.15 ± 0.2
FPNIASATKFKQLYRSRMNSLEMT [HMOX1],protein stability index,[1],2.37 ± 0.16
same,protein stability index,[2],2.62 ± 0.23
YRQDDPSYRSFHSGGYGQDALGMD [CTNNB1],protein stability index,[1],3.89 ± 0.35
same,protein stability index,[2],4.03 ± 0.14
LLLASGLVITDFFGHLINGAIAVF [PTGFR],protein stability index,[1],3.29 ± 0.72
same,protein stability index,[2],3.19 ± 0.86
YQELLNVKMALDIEIATYRKLLEG [PRPH],protein stability index,[1],2.22 ± 0.22
same,protein stability index,[2],2.43 ± 0.081
PMMEHEMGGHHPGADYPVDGLPDL [CTNNB1],protein stability index,[1],5.2 ± 0.23
same,protein stability index,[2],5.24 ± 0.13
DLVPKQAIQVQEADEAGWGGSGG [DLX1],protein stability index,"treatment: DMSO, c terminus: native",2.96 ± 0.75
same,protein stability index,"treatment: MLN4924 1 uM, 8 h, c terminus: native",3.09 ± 0.087
EKSLDQLKSISAEEILTLFCGAPP [PHTF1],protein stability index,[1],3.02 ± 0.21
same,protein stability index,[2],3.3 ± 0.15
SAFADIIHSLKESGQLWLDAYLHQ [FADS1],protein stability index,[1],2.16 ± 0.4
same,protein stability index,[2],2.25 ± 0.49
DFRVKYETELAMRQSVENDIHGLR [KRT18],protein stability index,[1],3.56 ± 0.2
same,protein stability index,[2],3.68 ± 0.1
NSHFSLNVKTLKDGKPFPELVLEQ [PCDHGC5],protein stability index,[1],3.42 ± 0.18
same,protein stability index,[2],3.76 ± 0.27
PPPNRMYPPPPPALPSSAPSGPPP [WASL],protein stability index,[1],5.01 ± 0.3
same,protein stability index,[2],5.08 ± 0.13
MAGLQRLASHLPVGVMLPHNTTEA [ZC2HC1C],protein stability index,[1],3.5 ± 0.13
same,protein stability index,[2],3.36 ± 0.27
DTCPEVGFFDVLGNDRRREWAALG [ACBD3],protein stability index,[1],3.09 ± 0.4
same,protein stability index,[2],3.76 ± 0.14
SDVIEYAKQKLDFFIRTSDSFDKF [PCMTD2],protein stability index,[1],2.36 ± 0.22
same,protein stability index,[2],2.48 ± 0.19
VRERILGADNIDVSHPIIYRGAVY [FEM1B],protein stability index,[1],2.13 ± 0.29
same,protein stability index,[2],2.57 ± 0.32
LPPVAVRSLQDLARIAIRGTIKKI [PCMTD2],protein stability index,[1],3.2 ± 0.34
same,protein stability index,[2],3.12 ± 0.22
LNMRSTYAKLAAVAVFFIMLIVYV [SEC22B],protein stability index,[1],3.14 ± 0.36
same,protein stability index,[2],3.19 ± 0.23
ACYAGAAPAPSQVKSKAKKTVDKH [CEBPB],protein stability index,[1],4.95 ± 0.33
same,protein stability index,[2],5.09 ± 0.39
PFGENAEFPADISSITEAVPSESE [NFE2L1],protein stability index,[1],5.5 ± 0.28
same,protein stability index,[2],5.25 ± 0.27
EETKKLANKYLVEDVLLLNFEEMR [KLHL14],protein stability index,[1],3.23 ± 0.23
same,protein stability index,[2],3.18 ± 0.27
KISYIGLMTQSSLETHHYVDCGGN [TMEM106C],protein stability index,[1],2.48 ± 0.24
same,protein stability index,[2],2.45 ± 0.24
IHKASATIIEPAGESDNPLRFTSG [INTS4],protein stability index,[1],4.03 ± 0.33
same,protein stability index,[2],4.15 ± 0.25
LPPSPPPSPASEQTVTVEEAAGGE [MAP2],protein stability index,[1],5.4 ± 0.27
same,protein stability index,[2],5.51 ± 0.16
VQEAVLDKWVNDPHRMDRRLLALI [GOLPH3],protein stability index,[1],2.29 ± 0.18
same,protein stability index,[2],2.52 ± 0.17
ALHIIVQYNRPISDFLTLHSIIIS [FEM1B],protein stability index,[1],3.03 ± 1
same,protein stability index,[2],2.37 ± 0.56
AAWIGGFLHSLVQFLFIYQLPFCG [OR4A15],protein stability index,[1],3.92 ± 0.8
same,protein stability index,[2],3.21 ± 0.6
HTLAVMNDRLYAIGGNHLKGFSHL [KLHL14],protein stability index,[1],2.22 ± 0.12
same,protein stability index,[2],2.18 ± 0.11
EAKNYLLLPQERPLMQGPRTRPRK [KLHL20],protein stability index,[1],4.25 ± 0.097
same,protein stability index,[2],4.17 ± 0.058
PPIPILELADHIERLKANDNLKFS [PTPRD],protein stability index,[1],3.56 ± 0.19
same,protein stability index,[2],3.32 ± 0.2
PAGFRVSTLGTLQPPPAPPKKIMP [PPFIA4],protein stability index,[1],4.14 ± 0.42
same,protein stability index,[2],4.07 ± 0.43
RTRDYKKTSLAPYVKVFEHFLENL [PRIM1],protein stability index,[1],2.11 ± 0.4
same,protein stability index,[2],2.48 ± 0.54
SKSGYLRYSCESRIRSYLREVSSY [DFFB],protein stability index,[1],2.1 ± 0.17
same,protein stability index,[2],2.34 ± 0.37
SGREHNFTRPNEKGEYEVAEGIGS [BTBD10],protein stability index,[1],5.11 ± 0.25
same,protein stability index,[2],4.99 ± 0.33
DMTFEEEAQLLQLKVKCLNNLAAS [FKBP8],protein stability index,[1],3.42 ± 0.27
same,protein stability index,[2],3.54 ± 0.46
VIAKWDYTAQQDQELDIKKNERLW [NCK2],protein stability index,[1],3.28 ± 0.093
same,protein stability index,[2],3.4 ± 0.32
MAEPSAATQSHSISSSSFGAEPSA [RTN3],protein stability index,[1],5.06 ± 0.096
same,protein stability index,[2],5.17 ± 0.13
EGKAPIISGVTKAISSPTVSRLTD [TPPP],protein stability index,[1],4.52 ± 0.2
same,protein stability index,[2],4.51 ± 0.36
QERQGPAKPEVLSIQWPGKRSSRR [NECAB1],protein stability index,[1],4.88 ± 0.21
same,protein stability index,[2],4.93 ± 0.13

# Reference: the supplement of paper PMC10567573
